The text below walks through data of PMC11388503.

The data set deals with T1, procalcitonin (UniProt P01258 26-141).
T1 sequence: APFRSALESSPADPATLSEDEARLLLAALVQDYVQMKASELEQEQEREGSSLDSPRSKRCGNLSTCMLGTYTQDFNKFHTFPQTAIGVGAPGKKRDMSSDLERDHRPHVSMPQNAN
The data set is described as follows: electrochemical IDE sensor.

B1: complementary aptamer (ssDNA)
DNA: GGCGCCGTCAAGGCATTACAATTACGGATATGAACTCGAC
modifications: 5'-SH (thiol)
Turning to B1, the binding result is listed as “no binding”.
